Assay results: the RNAGym collection of RNA variant scans (doi:10.1093/nar/gkz1192)

B1: CPEB3 Ribozyme (parent)
chain: UAACAGGGGGCCACAGCAGAAGCGUUCACGUCGCAGCCCCUGUCAGAUUCUGGUGAAUCUGCGAAUUCUGCUGUAUAUCUC

Variants of: B1
Assay: self-cleavage, relative activity (ratio to wild type); higher = more cleavage; in vitro, sequencing
Procedure, shortened: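 Libraries of CPEB3 self-cleaving ribozyme mutants came from rounds of error-prone PCR and carried barcodes, which DNA sequencing matched to variants. In vitro transcription used T7 RNA polymerase at 37°C for 5 hours, with a further 15 min in DNase I before EDTA stopped the reaction; the ribozymes cleaved during both steps. The RNA was reverse transcribed with template switching and sequenced on Illumina. Relative activity is the cleaved/total read fraction of a variant divided by that of the unmutated ribozyme, averaged over three batches with at least 5 reads.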

Point of comparison: UAACAGGGGGCCACAGCAGAAGCGUUCACAUCGCAGCCCCUGUCAGAUUCUGGUGAAUCUGCGUAUUCUGCUGUAUAUCUC, self-cleavage 0.34. Against it:
- UAACAGGGGGCCACAGCAGAAGCGUUCAUGUCGCAGCCCCUGUCAGAUUCUGGUGAAUCUGCGAAUUCUGCUGCAUAUCUC — higher, 0.97
- UAACAGGGGGCCACAGCAGAAGCGUUCAUGUCGCAGCCCCUGUCAGAUUCUGGUGAAUCGGCGAAUUCUGCUGUAUAUCUC — lower, 0.19
- UAACAGGGGGCCACAGCAGAAGCGUUCAUGUCGCAGCCCCUGUCAGAUUCUGGUGAAUCAGCGAAUUCUGCUGUAUAUCUC — lower, 0.2
- UAACAGGGGGCCACAGCAGAAGCGUUCAUGUCGCAGCCCCUGUCAGAUUCUGGUGAAUCCGCGAAUUCUGCUGUAUAUCUC — lower, 0.24
- UAACAGGGGGCCACAGCAGAAGCGUUCACAUCGCAGCCCCUGUCAGAUUCUGGUGAAUCUGCGGAUUCUGCUGUAUAUCUC — higher, 0.43
- UAACAGGGGGCCACAGCAGAAGCGUUCAUGUCGCAGCCCCUGUCAGAUUCUGGUGAAUCUGCGAAUUCCGCUGUAUAUCUC — lower, 0.16
- UAACAGGGGGCCACAGCAGAAGCGUUCAUGUCGCAGCCCCUGUCAGAUUCUGGUGAAUCUGCGAAUUCGGCUGUAUAUCUC — higher, 0.35
- UAACAGGGGGCCACAGCAGAAGCGUUCAUGUCGCAGCCCCUGUCAGAUUCUGGUGAAUCUGCGAAUUCAGCUGUAUAUCUC — lower, 0.3
- UAACAGGGGGCCACAGCAGAAGCGUUCAUGUCGCAGCCCCUGUCAGAUUCUGGUGAAUCUGCGAAUACUGCUGUAUAUCUC — lower, 0.29
- UAACAGGGGGCCACAGCAGAAGCGUUCAUGUCGCAGCCCCUGUCAGAUUCUGGUGAAUCUGCGAAUCCUGCUGUAUAUCUC — lower, 0.23
- UAACAGGGGGCCACAGCAGAAGCGUUCAUGUCGCAGCCCCUGUCAGACUCUGGUGAAUCUGCGAAUUCUGCUGUAUAUCUC — lower, 0.25
- UAACAGGGGGCCACAGCAGAAGCGUUCAUUUCGCAGCCCCUGUCAGAUUCUGGUGAAUCUGCGAAUUCUGCUGUAUAUCUC — lower, 0.23
- UAACAGGGGGCCACAGCAGAAGCGUUCAUGUCGCAGCCCCUGUCAGAUUCUGGUGAAUCUGCGAAUUCUGCUCUAUAUCUC — higher, 1.15
- UAACAGGGGGCCACAGCAGAAGCGUUCAUGACGCAGCCCCUGUCAGAUUCUGGUGAAUCUGCGAAUUCUGCUGUAUAUCUC — lower, 0.2
- UAACAGGGGGCCACAGCAGAAGCGUUCAUGCCGCAGCCCCUGUCAGAUUCUGGUGAAUCUGCGAAUUCUGCUGUAUAUCUC — lower, 0.31
- UAACAGGGGGCCACAGCAGAAGCGUUCAUGUCGCAGCCCCUGUCAGAUUCUGGAGAAUCUGCGAAUUCUGCUGUAUAUCUC — higher, 0.54
- UAACAGGGGGCCACAGCAGAAGCGUUCAUGUCGCAGCCCCUGUCAGAUUCUGGCGAAUCUGCGAAUUCUGCUGUAUAUCUC — higher, 0.42
- UAACAGGGGGCCACAGCAGAAGCGUUCACAUCGCAGCCCCUGUCAGAUUCUGGUGAAUCUGCGAAUUCUGCUGUGUAUCUC — lower, 0.26
- UAACAGGGGGCCACAGCAGAAGCGUUCACAUCGCAGCCCCUGUCAGAUUCUGGUGAAUCUGCGAAUUCUGCUGUAUUUCUC — lower, 0.33
- UAACAGGGGGCCACAGCAGAAGCGUUCACAUCGCAGCCCCUGUCAGAUUCUGGUGAAUCUGCGAAUUCUGCUGUAUGUCUC — higher, 0.4
- UAACAGGGGGCCACAGCAGAAGCGUUCACAUCGCAGCCCCUGUCAGAUUCUGGUGGAUCUGCGAAUUCUGCUGUAUAUCUC — higher, 0.37
- UAACAGGGGGCCACAGCAGAAGCGUUCACAUCGCAGCCCCUGUCAGAUUCUGGUGUAUCUGCGAAUUCUGCUGUAUAUCUC — higher, 0.37
- UAACAGGGGGCCACAGCAGAAGCGUUCAUGUCGCAGCCCCUGUCAGAUUCUGGUGAAUCUGCGAAUUCUGCUGUAUAGCUC — higher, 0.61
- UAACAGGGGGCCACAGCAGAAGCGUUCAUGUCGCAGCCCCUGUCAGAUUCUGGUGAAUCUGCGAAUUCUGCUGUAUACCUC — higher, 0.44
- UAACAGGGGGCCACAGCAGAAGCGUUCAUGUCGCAGCCCCUGUCAGAUUCUGGUGAAUCUGCGAAUUCUGCUGUAUAACUC — higher, 0.36
- UAACAGGGGGCCACAGCAGAAGCGUUCAUGUCGCAGCCCCUGUCAGAUUCUGGUGAAUCUGCGAAUUCUGCUGUAUAUCAC — higher, 0.48
- UAACAGGGGGCCACAGCAGAAGCGUUCAUGUCGCAGCCCCUGUCAGAUUCUGGUGAAUCUGCGAAUUCUGCUGUAUAUCCC — higher, 0.58
- UAACAGGGGGCCACAGCAGAAGCGUUCAUGUCGCAGCCCCUGUCAGAUACUGGUGAAUCUGCGAAUUCUGCUGUAUAUCUC — lower, 0.16
- UAACAGGGGGCCACAGCAGAAGCGUUCAUGUCGCAGCCCCUGUCAGAUCCUGGUGAAUCUGCGAAUUCUGCUGUAUAUCUC — higher, 0.39
- UAACAGGGGGCCACAGCAGAAGCGUUCACAUCGCAGCCUCUGUCAGAUUCUGGUGAAUCUGCGAAUUCUGCUGUAUAUCUC — lower, 0.21
- UAACAGGGGGCCACAGCAGAAGCGUUCAUGUCGCAGCCCCUGUCAGAUUCUGGUGAAUCUGCGAAUUCUGCGGUAUAUCUC — higher, 0.53
- UAACAGGGGGCCACAGCAGAAGCGUUCAUGUCGCAGCCCCUGUCAGAUUCUGGUGAAUCUGCGAAUUCUGCCGUAUAUCUC — higher, 0.75
- UAACAGGGGGCCACAGCAGAAGCGUUCAUGUCGCAGCCCCUGUCAGAUUCUGGUGAAUCUGCGAAUUCUGCAGUAUAUCUC — higher, 0.42
